The numbers were not newly measured in paper PMC6281825, which cites them from elsewhere.

For the data set, the target named is Complement C5 (Homo sapiens) (UniProt P01031).

What is called Kd is the equilibrium constant for the complex coming apart. With eculizumab, the Kd is 0.1 nM.
